# Source: the supplement of paper PMC10567573
# B1: BTBD1 (parent)
# chain: YGSIHGPTDYQVNIQIIEYEKKQT
# Variants of: B1
# Test: protein stability index of a GFP-peptide fusion (GPS, HEK-293T) (PSI 1-6); higher = more stable
# Conditions: c terminus: a fixed tail appended
# 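Note: lentivirally expressed fusions sorted by FACS into six bins by GFP to DsRed ratio, PSI derived from sequencing read proportions per bin multiplied by bin number.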
row,Variant,protein stability index
1,YGSIHGPTDYQVNIGIIEYEKKQT,2.47
2,YGSIHGPTDYQVNIIIIEYEKKQT,2.74
3,YGSIHGPTDYQVNIWIIEYEKKQT,4.17
4,YGSIHGPTDYQVNIFIIEYEKKQT,2.4
5,YGSIHGPTDYQVNIAIIEYEKKQT,1.96
6,YGSIHGPTDYQVNINIIEYEKKQT,2.62
7,YGSIHGPTDYQVNIMIIEYEKKQT,1.96
8,YGSIHGPTDYQVNILIIEYEKKQT,2.09
9,YGSIHGPTDYQVNICIIEYEKKQT,1.43
10,YGSIHGPTDYQVNIRIIEYEKKQT,2.67
11,YGSIHGPTDYQVNIYIIEYEKKQT,1.37
12,YGSIHGPTDYQVNIHIIEYEKKQT,2.11
13,YGSIHGPTDYQVNIVIIEYEKKQT,1.6
14,YGSIHGPTDYQVNIDIIEYEKKQT,3.06
15,YGSIHGPTDYQVNIKIIEYEKKQT,2.56
16,YGSIHGPTDYQVNITIIEYEKKQT,1.81
17,YGSIHGPTDYQVNIEIIEYEKKQT,2.66
18,YGSIHGPTDYQVNIPIIEYEKKQT,3.08
19,YGSIHGPTDYQVNISIIEYEKKQT,2.57
20,YGSIHGPTDYQVVIQIIEYEKKQT,1.87
21,YGSIHGPTDYQVLIQIIEYEKKQT,2.22
22,YGSIHGPTDYQVKIQIIEYEKKQT,2.57
23,YGSIHGPTDYQVFIQIIEYEKKQT,1.39
24,YGSIHGPTDYQVHIQIIEYEKKQT,2.48

row,Variant,protein stability index
1,YGSIHGPTDYQVYIQIIEYEKKQT,2.19
2,YGSIHGPTDYQVSIQIIEYEKKQT,2.15
3,YGSIHGPTDYQVPIQIIEYEKKQT,3.23
4,YGSIHGPTDYQVMIQIIEYEKKQT,2.74
5,YGSIHGPTDYQVCIQIIEYEKKQT,1.7
6,YGSIHGPTDYQVIIQIIEYEKKQT,1.83
7,YGSIHGPTDYQVTIQIIEYEKKQT,1.82
8,YGSIHGPTDYQVGIQIIEYEKKQT,3.34
9,YGSIHGPTDYQVEIQIIEYEKKQT,2.79
10,YGSIHGPTDYQVAIQIIEYEKKQT,2.4
11,YGSIHGPTDYQVDIQIIEYEKKQT,2.59
12,YGSIHGPTDYQVQIQIIEYEKKQT,2.69
13,YGSIHGPTDYQVRIQIIEYEKKQT,2
14,YGSIHGPTDYQVWIQIIEYEKKQT,1.85
15,YGSIHGPTDYQVNIQFIEYEKKQT,2.51
16,YGSIHGPTDYQVNIQCIEYEKKQT,2.96
17,YGSIHGPTDYQVNIQSIEYEKKQT,3.58
18,YGSIHGPTDYQVNIQAIEYEKKQT,3.8
19,YGSIHGPTDYQVNIQLIEYEKKQT,2.74
20,YGSIHGPTDYQVNIQMIEYEKKQT,3.32
21,YGSIHGPTDYQVNIQEIEYEKKQT,3.81
22,YGSIHGPTDYQVNIQWIEYEKKQT,2.48
23,YGSIHGPTDYQVNIQYIEYEKKQT,2.71
24,YGSIHGPTDYQVNIQDIEYEKKQT,3.61

row,Variant,protein stability index
1,YGSIHGPTDYQVNIQTIEYEKKQT,3.58
2,YGSIHGPTDYQVNIQQIEYEKKQT,3.9
3,YGSIHGPTDYQVNIQKIEYEKKQT,3.97
4,YGSIHGPTDYQVNIQNIEYEKKQT,3.55
5,YGSIHGPTDYQVNIQVIEYEKKQT,3.15
6,YGSIHGPTDYQVNIQRIEYEKKQT,3.46
7,YGSIHGPTDYQVNIQPIEYEKKQT,2.9
8,YGSIHGPTDYQVNIQHIEYEKKQT,3.91
9,YGSIHGPTDYQVNIQGIEYEKKQT,3.31
10,YGSIHGPTDYQKNIQIIEYEKKQT,3.44
11,YGSIHGPTDYQENIQIIEYEKKQT,4.08
12,YGSIHGPTDYQYNIQIIEYEKKQT,2.87
13,YGSIHGPTDYQGNIQIIEYEKKQT,3.52
14,YGSIHGPTDYQHNIQIIEYEKKQT,4.09
15,YGSIHGPTDYQINIQIIEYEKKQT,2.72
16,YGSIHGPTDYQWNIQIIEYEKKQT,2.32
17,YGSIHGPTDYQDNIQIIEYEKKQT,4.04
18,YGSIHGPTDYQANIQIIEYEKKQT,3.6
19,YGSIHGPTDYQFNIQIIEYEKKQT,2.71
20,YGSIHGPTDYQLNIQIIEYEKKQT,3.28
21,YGSIHGPTDYQSNIQIIEYEKKQT,3.98
22,YGSIHGPTDYQNNIQIIEYEKKQT,4.15
23,YGSIHGPTDYQCNIQIIEYEKKQT,2.77
24,YGSIHGPTDYQRNIQIIEYEKKQT,3.66

row,Variant,protein stability index
1,YGSIHGPTDYQMNIQIIEYEKKQT,2.93
2,YGSIHGPTDYQPNIQIIEYEKKQT,2.95
3,YGSIHGPTDYQQNIQIIEYEKKQT,4.19
4,YGSIHGPTDYQTNIQIIEYEKKQT,3.72
5,YGSIHGPTDYQVNIQIIGYEKKQT,2.24
6,YGSIHGPTDYQVNIQIIIYEKKQT,3.84
7,YGSIHGPTDYQVNIQIICYEKKQT,1.86
8,YGSIHGPTDYQVNIQIIHYEKKQT,1.84
9,YGSIHGPTDYQVNIQIILYEKKQT,3.33
10,YGSIHGPTDYQVNIQIISYEKKQT,1.88
11,YGSIHGPTDYQVNIQIIMYEKKQT,2.44
12,YGSIHGPTDYQVNIQIIWYEKKQT,3.17
13,YGSIHGPTDYQVNIQIIYYEKKQT,3.61
14,YGSIHGPTDYQVNIQIIVYEKKQT,3.19
15,YGSIHGPTDYQVNIQIIRYEKKQT,1.85
16,YGSIHGPTDYQVNIQIINYEKKQT,2.17
17,YGSIHGPTDYQVNIQIIKYEKKQT,2.61
18,YGSIHGPTDYQVNIQIITYEKKQT,2.07
19,YGSIHGPTDYQVNIQIIAYEKKQT,1.71
20,YGSIHGPTDYQVNIQIIPYEKKQT,2.17
21,YGSIHGPTDYQVNIQIIDYEKKQT,2.64
22,YGSIHGPTDYQVNIQIIQYEKKQT,2.1
23,YGSIHGPTDYQVNIQIIFYEKKQT,3.79
24,YGSIHGPTDYQVNIQIIEYKKKQT,2.35

row,Variant,protein stability index
1,YGSIHGPTDYQVNIQIIEYNKKQT,2.43
2,YGSIHGPTDYQVNIQIIEYLKKQT,2.25
3,YGSIHGPTDYQVNIQIIEYMKKQT,2.33
4,YGSIHGPTDYQVNIQIIEYAKKQT,2.39
5,YGSIHGPTDYQVNIQIIEYCKKQT,1.66
6,YGSIHGPTDYQVNIQIIEYDKKQT,2.59
7,YGSIHGPTDYQVNIQIIEYHKKQT,2.54
8,YGSIHGPTDYQVNIQIIEYPKKQT,1.72
9,YGSIHGPTDYQVNIQIIEYQKKQT,2.2
10,YGSIHGPTDYQVNIQIIEYGKKQT,2.21
11,YGSIHGPTDYQVNIQIIEYFKKQT,1.84
12,YGSIHGPTDYQVNIQIIEYIKKQT,2.22
13,YGSIHGPTDYQVNIQIIEAEKKQT,3.19
14,YGSIHGPTDYQVNIQIIEKEKKQT,3.38
15,YGSIHGPTDYQVNIQIIEIEKKQT,2.39
16,YGSIHGPTDYQVNIQIIEGEKKQT,3.36
17,YGSIHGPTDYQVNIQIIEVEKKQT,2.44
18,YGSIHGPTDYQVNIQIIETEKKQT,2.92
19,YGSIHGPTDYQVNIQIIEMEKKQT,3.03
20,YGSIHGPTDYQVNIQIIECEKKQT,2.69
21,YGSIHGPTDYQVNIQIIEHEKKQT,3.23
22,YGSIHGPTDYQVNIQIIENEKKQT,3.29
23,YGSIHGPTDYQVNIQIIESEKKQT,3.56
24,YGSIHGPTDYQVNIQIIEFEKKQT,2.14

row,Variant,protein stability index
1,YGSIHGPTDYQVNIQIIEREKKQT,3.01
2,YGSIHGPTDYQVNIQIIEPEKKQT,3.67
3,YGSIHGPTDYQVNIQIIEEEKKQT,4.05
4,YGSIHGPTDYQVNIQIIEDEKKQT,3.76
5,YGSIHGPTDYQVNIQIIEWEKKQT,2.5
6,YGSIHGPTDYQVNIQIIELEKKQT,2.54
7,YGSIHGPTDYQVNIQIIEQEKKQT,3.29
8,YGSIHGPTDVQVNIQIIEYEKKQT,2.77
9,YGSIHGPTDSQVNIQIIEYEKKQT,4.16
10,YGSIHGPTDWQVNIQIIEYEKKQT,2.05
11,YGSIHGPTDRQVNIQIIEYEKKQT,4.12
12,YGSIHGPTDTQVNIQIIEYEKKQT,4.1
13,YGSIHGPTDYQVNIQIKEYEKKQT,3.53
14,YGSIHGPTDYQVNIQIDEYEKKQT,3.63
15,YGSIHGPTDYQVNIQIMEYEKKQT,2.81
16,YGSIHGPTDYQVNIQIVEYEKKQT,2.68
17,YGSIHGPTDYQVNIQIYEYEKKQT,2.77
18,YGSIHGPTDYQVNIQIHEYEKKQT,3.22
19,YGSIHGPTDYQVNIQIQEYEKKQT,3.35
20,YGSIHGPTDYQVNIQITEYEKKQT,3.47
21,YGSIHGPTDYQVNIQIAEYEKKQT,3.32
22,YGSIHGPTDYQVNIQILEYEKKQT,2.68
23,YGSIHGPTDYQVNIQIWEYEKKQT,2.71
24,YGSIHGPTDYQVNIQIREYEKKQT,2.87

row,Variant,protein stability index
1,YGSIHGPTDYQVNIQIEEYEKKQT,3.69
2,YGSIHGPTDYQVNIQIPEYEKKQT,3.44
3,YGSIHGPTDYQVNIQINEYEKKQT,3.33
4,YGSIHGPTDYQVNIQIGEYEKKQT,3.31
5,YGSIHGPTDYQVNIQICEYEKKQT,2.62
6,YGSIHGPTDYQVNIQISEYEKKQT,3.31
7,YGSIHGPTDYQVNIQIFEYEKKQT,2.46
8,YGSIHGPTDYQVNQQIIEYEKKQT,3.74
9,YGSIHGPTDYQVNFQIIEYEKKQT,2.92
10,YGSIHGPTDYQVNPQIIEYEKKQT,3.77
11,YGSIHGPTDYQVNHQIIEYEKKQT,3.48
12,YGSIHGPTDYQVNNQIIEYEKKQT,3.98
13,YGSIHGPTDYQVNVQIIEYEKKQT,3.16
14,YGSIHGPTDYQVNWQIIEYEKKQT,2.76
15,YGSIHGPTDYQVNRQIIEYEKKQT,3.53
16,YGSIHGPTDYQVNCQIIEYEKKQT,3.3
17,YGSIHGPTDYQVNAQIIEYEKKQT,3.47
18,YGSIHGPTDYQVNMQIIEYEKKQT,3.37
19,YGSIHGPTDYQVNSQIIEYEKKQT,3.08
20,YGSIHGPTDYQVNDQIIEYEKKQT,3.75
21,YGSIHGPTDYQVNEQIIEYEKKQT,3.46
22,YGSIHGPTDYQVNTQIIEYEKKQT,3.58
23,YGSIHGPTDYQVNYQIIEYEKKQT,3.35
24,YGSIHGPTDYQVNGQIIEYEKKQT,3.32

row,Variant,protein stability index
1,YGSIHGPTDYQVNKQIIEYEKKQT,3.75
2,YGSIHGPTDYQVNLQIIEYEKKQT,3.36
3,YGSIHGPTDYRVNIQIIEYEKKQT,2.32
4,YGSIHGPTDYYVNIQIIEYEKKQT,2.24
5,YGSIHGPTDYHVNIQIIEYEKKQT,2.48
6,YGSIHGPTDYWVNIQIIEYEKKQT,2.67
7,YGSIHGPTDYEVNIQIIEYEKKQT,2.66
8,YGSIHGPTDYIVNIQIIEYEKKQT,1.68
9,YGSIHGPTDYDVNIQIIEYEKKQT,3.52
10,YGSIHGPTDYLVNIQIIEYEKKQT,2.83
11,YGSIHGPTDYTVNIQIIEYEKKQT,1.55
12,YGSIHGPTDYGVNIQIIEYEKKQT,2.57
13,YGSIHGPTDYAVNIQIIEYEKKQT,2.26
14,YGSIHGPTDYMVNIQIIEYEKKQT,1.93
15,YGSIHGPTDYPVNIQIIEYEKKQT,3.5
16,YGSIHGPTDYKVNIQIIEYEKKQT,2.15
17,YGSIHGPTDYSVNIQIIEYEKKQT,2.34
18,YGSIHGPTDYVVNIQIIEYEKKQT,1.42
19,YGSIHGPTDYNVNIQIIEYEKKQT,2.39
20,YGSIHGPTDYCVNIQIIEYEKKQT,1.54
